Test results from patent publication US20230303695A1 (SHANGHAI XBH BIOTECHNOLOGY, published 2023).
Positions count from the first letter of the chain named.

How the values were obtained:
[1] = target: T1, D1 domain of IGSF8 (recombinant protein) (human, UniProt Q969P0 28-149, limits assumed); test: SPR, Biacore T100
T1 construct: domain: D1 (Ig V-set domain); also called Ig V-set domain of IGSF8
T1 sequence (looked up): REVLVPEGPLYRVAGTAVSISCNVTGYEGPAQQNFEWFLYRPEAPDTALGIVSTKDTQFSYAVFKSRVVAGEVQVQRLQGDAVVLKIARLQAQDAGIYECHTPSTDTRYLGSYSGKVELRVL

[2] = target: T2, human IGSF8 expressed on the cell surface (human, UniProt Q969P0 28-613); test: FACS on CT26 cells with forced surface expression of human IGSF8
T2 construct: whole, on cells; also called human IGSF8 on CT26 cells; IGSF8 on MC38 cells
T2 sequence (looked up): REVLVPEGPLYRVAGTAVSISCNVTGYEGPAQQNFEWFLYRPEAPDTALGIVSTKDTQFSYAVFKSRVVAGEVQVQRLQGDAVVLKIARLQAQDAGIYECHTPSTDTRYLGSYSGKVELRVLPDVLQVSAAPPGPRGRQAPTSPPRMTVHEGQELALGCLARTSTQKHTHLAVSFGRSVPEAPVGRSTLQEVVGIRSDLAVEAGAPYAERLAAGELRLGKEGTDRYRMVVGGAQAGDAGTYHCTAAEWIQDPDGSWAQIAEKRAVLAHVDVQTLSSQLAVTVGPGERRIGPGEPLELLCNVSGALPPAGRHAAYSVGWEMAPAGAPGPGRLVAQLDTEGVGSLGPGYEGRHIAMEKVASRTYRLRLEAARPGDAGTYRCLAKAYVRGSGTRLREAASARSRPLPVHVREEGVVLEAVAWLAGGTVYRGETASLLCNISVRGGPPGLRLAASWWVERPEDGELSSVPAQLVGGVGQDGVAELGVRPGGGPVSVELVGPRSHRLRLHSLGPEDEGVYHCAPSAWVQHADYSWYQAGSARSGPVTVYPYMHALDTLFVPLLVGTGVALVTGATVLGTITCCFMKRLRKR
Description: For antibody binding assays based on cell-expressed antigens, 100,000 cells overexpressing the antigen (either the full-length IGSF8 or the D1 domain thereof) were washed with PBS buffer containing 2% FBS, and then incubated with 100 μL of antibodies or IgG of different concentrations for 30 minutes on ice. Cells were then washed twice with wash buffer, and incubated with 100 μL of 1:100 anti-human Fc-PE antibody for 15 minutes on ice. Cells were washed twice with wash buffer and analyzed on a FACS analyzer (CytoFlex, Beckman).

[3] = target: T3, full-length IGSF8 (recombinant antigen of the SPR screen; IGSF8 target antigen of the phage panning) (human, UniProt Q969P0 28-579, limits assumed); test: SPR, Biacore T100
T3 sequence (looked up): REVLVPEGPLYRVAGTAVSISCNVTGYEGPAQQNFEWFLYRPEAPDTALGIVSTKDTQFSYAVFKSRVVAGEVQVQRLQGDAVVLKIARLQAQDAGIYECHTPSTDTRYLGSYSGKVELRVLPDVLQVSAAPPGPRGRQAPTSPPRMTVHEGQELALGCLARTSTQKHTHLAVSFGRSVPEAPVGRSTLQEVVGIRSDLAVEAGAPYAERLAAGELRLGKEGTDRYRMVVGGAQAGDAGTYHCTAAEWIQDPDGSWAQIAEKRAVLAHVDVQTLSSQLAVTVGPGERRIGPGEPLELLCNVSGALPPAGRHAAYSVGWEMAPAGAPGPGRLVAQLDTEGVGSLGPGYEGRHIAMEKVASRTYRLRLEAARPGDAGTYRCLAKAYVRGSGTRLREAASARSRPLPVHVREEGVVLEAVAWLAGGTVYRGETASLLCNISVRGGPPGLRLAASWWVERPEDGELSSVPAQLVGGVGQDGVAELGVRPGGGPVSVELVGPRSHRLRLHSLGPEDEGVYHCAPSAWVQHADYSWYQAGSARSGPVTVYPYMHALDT

[4] = target: T4, recombinant human IGSF8 extracellular domain tagged by a human Fc region (IGSF8-hFc) (human, UniProt Q969P0 28-579, biotin label in Examples 17, 18 and 28 (site not given)); test: FACS, biotin-labelled IGSF8-hFc on CT26 cells expressing the KIR, MFI normalized to Thy1.1
T4 construct: also called IGSF8-Fc fusion protein; IGSF8-hFc-biotin; not shown: human Fc region
T4 sequence: T3 sequence (looked up)
Description: For this experiment, different human KIR receptors (KIR2DL1, KIR2DL2, KIR2DL3, KIR2DL4, KIR2DL5A, KIR2DL5B, KIR3DL1, KIR3DL2, KIR3DL3) were first cloned into a proprietary lentiviral vector containing a thy1.1 tag (FIG. 17A). Then mouse CT26 cells, were transducted by these lentiviral constructs, and IGSF8 binding was tested with biotin-labelled recombinant IGSF8 hFc fusion protein. The mean fluorescence intensity (MFI) of IGSF8 binding to different CT26 cells were normalized by the expression of different KIRs on CT26 cells using an anti-thy1.1 mAb (Biolegend) via flow cytometry.
KLRC1 also contains a ITIM motif in its intracellular domain, and was known to be a inhibitory receptor of NK or CD8⁺ T cells as part of a heterodimer with KLRD1 on the cell surface. […] Specifically, 100,000 CT26 cells overexpressing the antigens (KIRs or KLRs) were washed with PBS buffer containing 2% FBS, and incubated with 100 μL IGSF8 recombinant proteins or antibodies (5 μg/mL) for 30 minutes on ice. Cells were then washed twice with wash buffer, and incubated with 100 μL of 1:100 anti-human Fc-PE antibody for 15 minutes on ice. Cells were washed twice with wash buffer and analyzed on a FACS analyzer (CytoFlex, Beckman). In these experiments, the mean fluorescence intensity (MFI) of IGSF8 binding to different CT26 cells were normalized by the expression of different KLRs on CT26 cells using an anti-thy1.1 mAb via flow cytometry.

[5] = target: T4, recombinant human IGSF8 extracellular …; test: FACS, biotin-labelled IGSF8 on CT26 cells expressing KIR3DL1/2 constructs, MFI normalized to Thy1.1

B1: Antibody C30 (B34) (antibody, V domains shown)
VH: EVQLLESGGGLVQPGGSLRLSCAASGFTFSSYAMSWVRQAPGKGLEWVSGITGSGGSTYYADSVKGRFTISRDNSKNTLYLQMNSLRAEDTAVYYCARGRQVDKWGQGTLVTVSS
VL: DIMLTQSPSSLSASVGDRVTITCRASQSIHNYLNWIQQTPGKAPKLLVFAASTLQRGVPPRYSGRGSGTEFTLTISSLQPEDFATYYCQQSYTTPLTFGGGTKVEIRR
notes: Expressed in CHO cells; also called mAb-B34 (C30)
[1]
  Kd: < 50 nM
[2]
  EC50: 7.88 nM
[3]
  Kd: 13.8 nM

B2: Antibody C39 (8G4) (antibody, V domains shown)
VH: B1 VH with G99S, Q101N, V102L, K104S
VL: DIQLTQSPSSLSASVGDRVTITCRASQSIHNYLNWIQQTPGKAPKLLVFAASTLQRGVPPRYSGRGSGTEFTLTISSLQPEDFATYYCQQSYTTPLTFGGGTKVEIR
notes: also called mab-8G4 (C39)
[1]
  Kd: < 50 nM

B3: Antibody C35 (1B1) (antibody, V domains shown)
VH: EVQLLESGGGLVQPGGSLRLSCAVSGFTFNSFAMSWVRQAPGKGLEWVSAISGSGGGTYYADSVKGRFTISRDNSKNTLYLQMNSLRAEDTAVYYCAREGWEVRTPGYFDYWGQGTLVTVSS
VL: DVVMTQSPSSLSASVGDRVTITCRASHRIFSYLTWYHQKPGKAPNLLISGASSLGAGVPSRFSGSGSGTDFTLTISSLQPEDFGTYYCQQSFSDPYTFGQGTKLEIKR
notes: also called mAb-1B1 (C35)
[1]
  Kd: < 50 nM
[3]
  Kd: 2.06 nM

B4: KIR2DL2 expressed on CT26 cells (receptor, human, UniProt P43627 22-348, looked up)
chain: HEGVHRKPSLLAHPGRLVKSEETVILQCWSDVRFEHFLLHREGKFKDTLHLIGEHHDGVSKANFSIGPMMQDLAGTYRCYGSVTHSPYQLSAPSDPLDIVITGLYEKPSLSAQPGPTVLAGESVTLSCSSRSSYDMYHLSREGEAHECRFSAGPKVNGTFQADFPLGPATHGGTYRCFGSFRDSPYEWSNSSDPLLVSVIGNPSNSWPSPTEPSSKTGNPRHLHILIGTSVVIILFILLFFLLHRWCSNKKNAAVMDQESAGNRTANSEDSDEQDPQEVTYTQLNHCVFTQRKITRPSQRPKTPPTDIIVYAELPNAESRSKVVSCP
notes: whole, on cells
[4]
  binding result: no binding

B5: Antibody C34 (1D7) (antibody, V domains shown)
VH: EVQLLESGGGLVQPGGSLRLSCAVSGFTFNSFAMSWVRQAPGKGLEWVSAISGSGGGTYYADSVKGRFTISRDNSKNTLYLQMNSLRAEDTAIYYCAREVDGYGAFDIWGQGTMVTVSS
VL: DIQMTQSPSSLSASVGNRVTITCRASQTIRNYLNWYQQKPGEAPKVLIYGASTLQSGVPSRFSASGSGTDFTLTISSLQPDDFATYHCQQTFSDPYTFGQGTKVEIK
notes: also called mAb-1D7 (C34)
[1]
  Kd: < 50 nM
[3]
  Kd: 2.12 nM

B6: KIR2DL5A expressed on CT26 cells (receptor, human, UniProt Q8N109 22-375, looked up)
chain: HEGGQDKPLLSAWPSAVVPRGGHVTLLCRSRLGFTIFSLYKEDGVPVPELYNKIFWKSILMGPVTPAHAGTYRCRGSHPRSPIEWSAPSNPLVIVVTGLFGKPSLSAQPGPTVRTGENVTLSCSSRSSFDMYHLSREGRAHEPRLPAVPSVNGTFQADFPLGPATHGGTYTCFGSLHDSPYEWSDPSDPLLVSVTGNSSSSSSSPTEPSSKTGIRRHLHILIGTSVAIILFIILFFFLLHCCCSNKKNAAVMDQEPAGDRTVNREDSDDQDPQEVTYAQLDHCVFTQTKITSPSQRPKTPPTDTTMYMELPNAKPRSLSPAHKHHSQALRGSSRETTALSQNRVASSHVPAAGI
notes: whole, on cells
[4]
  binding result: no binding

B7: KIR2DL5B expressed on CT26 cells (receptor, human, UniProt Q8NHK3 22-375, looked up)
chain: B6 chain with N152D, G174S
notes: whole, on cells
[4]
  binding result: no binding

B8: KIR3DL1 D1 construct on CT26 cells (receptor, human, UniProt P43629 22-118, looked up)
chain: HMGGQDKPFLSAWPSAVVPRGGHVTLRCHYRHRFNNFMLYKEDRIHIPIFHGRIFQESFNMSPVTTAHAGNYTCRGSHPHSPTGWSAPSNPVVIMVT
notes: domain: D1; also called D1/D3 construct
[5]
  binding result: no binding (tested: not shown on the sheet)

B9: Antibody C37 (3F12) (antibody, V domains shown)
VH: EVQLVQSGGGLVKPGGSLRLSCAASGFTFSSYSMNWVRQAPGKGLEWVSSISSSSSYIYYADSVKGRFTISRDNAKNSLYLQMNSLRAEDTAVYYCAGRQYDFWSGWDWFDPWGQGTLVTVSS
VL: DIQLTQSPSSLSASVGDRVTITCRASQSISTYLNWYQQKPGKAPKLLIHDASILQSGVPSRFSGSGSGTDFTLTISSLQAEDFATYYCQQSYSTLPYTFGQGTKVEIK
notes: also called mAb-3F12(C37)
[1]
  Kd: < 50 nM
[2]
  EC50: 5.93 nM
[3]
  Kd: 22.5 nM

B10: KIR3DL2 D3 construct on CT26 cells (receptor, human, UniProt P43630 222-340, looked up)
chain: EKPSLSAQPGPTVQAGENVTLSCSSWSSYDIYHLSREGEAHERRLRAVPKVNRTFQADFPLGPATHGGTYRCFGSFRALPCVWSNSSDPLLVSVTGNPSSSWPSPTEPSSKSGICRHLH
notes: domain: D3; also called D1/D3 construct
[5]
  binding result: no binding (tested: not shown on the sheet)

B11: KIR3DL2 D1 construct on CT26 cells (receptor, human, UniProt P43630 22-118, looked up)
chain: LMGGQDKPFLSARPSTVVPRGGHVALQCHYRRGFNNFMLYKEDRSHVPIFHGRIFQESFIMGPVTPAHAGTYRCRGSRPHSLTGWSAPSNPLVIMVT
notes: as for B8
[5]
  binding result: no binding (tested: not shown on the sheet)

B12: KIR3DL1 D3 construct on CT26 cells (receptor, human, UniProt P43629 222-340, looked up)
chain: EKPSLSAQPGPKVQAGESVTLSCSSRSSYDMYHLSREGGAHERRLPAVRKVNRTFQADFPLGPATHGGTYRCFGSFRHSPYEWSDPSDPLLVSVTGNPSSSWPSPTEPSSKSGNPRHLH
notes: as for B10
[5]
  binding result: no binding (tested: not shown on the sheet)
